T1: Swi3 (S. cerevisiae, UniProt P32591 1-825)
T1 construct: Swi3, subunit of the S. cerevisiae Swi/Snf complex; endogenous protein; two copies (chains A and B) in the model; also called Swi3A; Swi3B; source: endogenous, S. cerevisiae; purified as part of the Swi/Snf complex through Snf6-3Flag (ANTI-FLAG M2 resin, Superose 6)
T1 sequence (looked up): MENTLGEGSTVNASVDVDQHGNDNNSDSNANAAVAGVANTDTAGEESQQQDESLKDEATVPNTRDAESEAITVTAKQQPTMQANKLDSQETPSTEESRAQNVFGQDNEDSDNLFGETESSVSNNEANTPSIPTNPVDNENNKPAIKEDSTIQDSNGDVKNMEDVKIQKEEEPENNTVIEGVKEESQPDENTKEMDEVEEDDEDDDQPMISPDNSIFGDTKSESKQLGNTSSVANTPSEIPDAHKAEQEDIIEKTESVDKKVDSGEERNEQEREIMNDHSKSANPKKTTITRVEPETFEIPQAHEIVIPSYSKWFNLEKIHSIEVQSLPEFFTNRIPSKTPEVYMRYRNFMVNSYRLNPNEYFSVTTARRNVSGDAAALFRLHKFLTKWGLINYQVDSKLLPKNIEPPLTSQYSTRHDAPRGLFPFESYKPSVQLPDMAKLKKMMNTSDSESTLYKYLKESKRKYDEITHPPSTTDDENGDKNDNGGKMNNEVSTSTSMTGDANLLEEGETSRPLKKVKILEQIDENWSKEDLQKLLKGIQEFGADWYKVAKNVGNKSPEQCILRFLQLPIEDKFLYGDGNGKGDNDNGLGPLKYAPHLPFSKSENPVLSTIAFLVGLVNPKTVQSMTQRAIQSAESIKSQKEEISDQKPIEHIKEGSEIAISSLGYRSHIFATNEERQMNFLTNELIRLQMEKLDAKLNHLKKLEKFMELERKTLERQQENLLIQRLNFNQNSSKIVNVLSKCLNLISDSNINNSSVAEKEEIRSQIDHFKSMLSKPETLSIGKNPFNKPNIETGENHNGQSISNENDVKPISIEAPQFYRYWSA

B1: Snf5 (natural protein, S. cerevisiae, UniProt P18480 1-905, looked up)
chain: MNNQPQGTNSVPNSIGNIFSNIGTPSFNMAQIPQQLYQSLTPQQLQMIQQRHQQLLRSRLQQQQQQQQQTSPPPQTHQSPPPPPQQSQPIANQSATSTPPPPPAPHNLHPQIGQVPLAPAPINLPPQIAQLPLATQQQVLNKLRQQAIAKNNPQVVNAITVAQQQVQRQIEQQKGQQTAQTQLEQQRQLLVQQQQQQQLRNQIQRQQQQQFRHHVQIQQQQQKQQQQQQQHQQQQQQQQQQQQQQQQQQQQQQQQQQQQQQQQQQQQQGQIPQSQQVPQVRSMSGQPPTNVQPTIGQLPQLPKLNLPKYQTIQYDPPETKLPYPTYWSDKKADTDTLLYEQIIQRDKINKYSLIRETNGYDPFSIYGFSNKEYISRLWHTLKYYQDLKNTRMKSITSTSQKIPSASIWGNGYSGYGNGITNTTTRVIPQVEVGNRKHYLEDKLKVYKQAMNETSEQLVPIRLEFDQDRDRFFLRDTLLWNKNDKLIKIEDFVDDMLRDYRFEDATREQHIDTICQSIQEQIQEFQGNPYIELNQDRLGGDDLRIRIKLDIVVGQNQLIDQFEWDISNSDNCPEEFAESMCQELELPGEFVTAIAHSIREQVHMYHKSLALLGYNFDGSAIEDDDIRSRMLPTITLDDVYRPAAESKIFTPNLLQISAAELERLDKDKDRDTRRKRRQGRSNRRGMLALSGTSASNTSMNGVHNTVAAGNASSLPPGEILLPDIADIPRTFRTPVPSTLMPGGVDVGPSVESYELRNTTTYKSRPDRPKPVSPPCYIIDHIPGHSLLLSIKLPGKVNTKEEFAAAPNDTSSGTNAMLPSPESLKTKLNSNIRAGVTIPSIPNPIANHTVTNSPNPTLQPVIPGGAASKSVPTPSLPIAPPVAPHDSEATLLTNSNNGSSNNNTQNT
notes: Snf5, subunit of the S. cerevisiae Swi/Snf complex; endogenous protein; For cryo-EM the complex was cross-linked with 1 mM BS3; source: endogenous, S. cerevisiae; purified as part of the Swi/Snf complex through Snf6-3Flag (ANTI-FLAG M2 resin, Superose 6)
B2: Snf12 (natural protein, S. cerevisiae, UniProt P53628 1-566, looked up)
chain: MSKVMKPSNGKGSRKSSKAATPDTKNFFHAKKKDPVNQDKANNASQITPTVPHSHPSDMVIPDHLAELIPELYSFQQLVDSEKRLDHFIHLRNLHMKRMVAQWERSKLSQEFLYPHLNFPNVKFLRIFISNVSENQPWQMDTNNEADLMALENATWTMRIEGRLLDNVQANDPAREKFSSFIESIVVDFKNKENDNVPSTKFNAAPEENATEGPSDKKLNLNLPLQFSLPNGDNSTTTNTDQNNATMGEETAKKDMSSTTPKLESVKWQYDPNNPVDFDGLDIKRVGSENVECTISILRKSSPEEPFMSYSPQLTAIIGLKSGTSHDAIFSIYKYIHLNELLTNDESAFENLMGNRNNHNSNTSTSKMLDAASSQVSIVKLDTQLITLLPSSLKESSPDTMKLTDLLSLINSTHLLPLQPIEIDYTVRVDKASTYGELVLDIEVPDVNALKFNNTQRESQIGAAELNENARELEQIKPKIALQDKEITSVLSNLHESNKRYRFFKKISEDPVKALNECIASTSNALKVLSGDEGYNEDMVRRANFYKENEAMLRENIEVILSNGRM
notes: Snf12, subunit of the S. cerevisiae Swi/Snf complex; endogenous protein; Part of the SWIB domain was homology modelled; For cryo-EM the complex was cross-linked with 1 mM BS3; source: endogenous, S. cerevisiae; purified as part of the Swi/Snf complex through Snf6-3Flag (ANTI-FLAG M2 resin, Superose 6)
B3: Swi1 (natural protein, S. cerevisiae, UniProt P09547 1-1314, looked up)
chain: MDFFNLNNNNNNNNTTTTTTTTNNNNTNNNNTNNNNNPANNTNNNNSTGHSSNTNNNTNNNNTNTGASGVDDFQNFFDPKPFDQNLDSNNNNSNSNNNDNNNSNTVASSTNFTSPTAVVNNAAPANVTGGKAANFIQNQSPQFNSPYDSNNSNTNLNSLSPQAILAKNSIIDSSNLPLQAQQQLYGGNNNNNSTGIANDNVITPHFITNVQSISQNSSSSTPNTNSNSTPNANQQFLPFNNSASNNGNLTSNQLISNYAASNSMDRSSSASNEFVPNTSDNNNNSNNHNMRNNSNNKTSNNNNVTAVPAATPANTNNSTSNANTVFSERAAMFAALQQKQQQRFQALQQQQQQQQNQQQQNQQPQQQQQQQQNPKFLQSQRQQQQRSILQSLNPALQEKISTELNNKQYELFMKSLIENCKKRNMPLQSIPEIGNRKINLFYLYMLVQKFGGADQVTRTQQWSMVAQRLQISDYQQLESIYFRILLPYERHMISQEGIKETQAKRIFLQQFLQELLKKVQQQQQAAALANANNNINSASSAPTPAAPGASVPATAAPGTEAGIVPVSANTPKSLNSNININVNNNNIGQQQVKKPRKQRVKKKTKKELELERKEREDFQKRQQKLLEDQQRQQKLLLETKLRQQYEIELKKLPKVYKRSIVRNYKPLINRLKHYNGYDINYISKIGEKIDSNKPIFLFAPELGAINLHALSMSLQSKNLGEINTALNTLLVTSADSNLKISLVKYPELLDSLAILGMNLLSNLSQNVVPYHRNTSDYYYEDAGSNQYYVTQHDKMVDKIFEKVNNNATLTPNDSNDEKVTILVDSLTGNQLPTPTPTEMEPDLDTECFISMQSTSPAVKQWDLLPEPIRFLPNQFPLKIHRTPYLTSLKKIKDEIDDPFTKINTRGAEDPKVLINDQLSTISMILRNISFSDNNSRIMSRNFYLKRFISDLLWLVLIHPENFTCNRKILNFKKDLVIVLSNISHLLEIASSIDCLLILILVISFGQPKLNPMASSSSFGSESLTFNEFQLQWGKYQTFGVDILAKLFSLEKPNLNYFKSILLNKNTGNNLYDRNSNNNHKDKKLLRRLLNLYNDNNKNNNNRHNLLNDVVSFLFSAIPLQQVLSQSADPSLLIDQFSPVISQSLTSILVIVQKILPLSNEVFEISENNSDSNSNNNGNKDSSFNFNKNLPFVWLSSEENIGSGLLKLSEIILNINNSTSKNTLLQQQNYSKVLLPSINISCVQLIKCLVEKSICFENCLNNDPEILKKIASIPNLFPTDLEIFQLFTNPSVDIQIINQYQLLYNLKNDILTNLE
notes: Swi1, subunit of the S. cerevisiae Swi/Snf complex; endogenous protein; Only part of the chain is modelled (C-terminus with seven ARM repeats, α1, β1); For cryo-EM the complex was cross-linked with 1 mM BS3; source: endogenous, S. cerevisiae; purified as part of the Swi/Snf complex through Snf6-3Flag (ANTI-FLAG M2 resin, Superose 6)
B4: Snf6 with a C-terminal 3-Flag tag (natural protein, S. cerevisiae, UniProt P18888 1-332, looked up)
chain: MGVIKKKRSHHGKASRQQYYSGVQVGGVGSMGAINNNIPSLTSFAEENNYQYGYSGSSAGMNGRSLTYAQQQLNKQRQDFERVRLRPEQLSNIIHDESDTISFRSNLLKNFISSNDAFNMLSLTTVPCDRIEKSRLFSEKTIRYLMQKQHEMKTQAAELQEKPLTPLKYTKLIAAAEDGSRSTKDMIDAVFEQDSHLRYQPDGVVVHRDDPALVGKLRGDLREAPADYWTHAYRDVLAQYHEAKERIRQKEVTAGEAQDEASLQQQQQQDLQQQQQVVTTVASQSPHATATEKEPVPAVVDDPLENMFGDYSNEPFNTNFDDEFGDLDAVFF
notes: Snf6, subunit of the S. cerevisiae Swi/Snf complex; expressed from its own locus; Bait of the purification; For cryo-EM the complex was cross-linked with 1 mM BS3; source: endogenous locus tagged by homologous recombination, S. cerevisiae; purified (ANTI-FLAG M2 resin, FLAG peptide elution, Superose 6); not shown: 3-Flag, C-terminal, kept

Columns and labels:
Assay in all cases: cryo-EM structure; endogenous Swi/Snf complex purified as a whole through Snf6-3Flag, nucleosome-free, cross-linked with 1 mM BS3, 20 mM HEPES pH 7.4, 350 mM NaCl; 4.1 Å average, 2.9 Å for the base module
Details in all cases: both partners purified
[1] = biological target: B3
[2] = biological target: T2, Snf2 (S. cerevisiae, UniProt P22082 1-1703)
T2 construct: Snf2, ATPase-containing subunit of the S. cerevisiae Swi/Snf complex; endogenous protein; Only the preHSA domain and the HSA helix are seen in the map; the ATPase domain is absent from the structure; For cryo-EM the complex was cross-linked with 1 mM BS3; source: endogenous, S. cerevisiae; purified as part of the Swi/Snf complex through Snf6-3Flag (ANTI-FLAG M2 resin, Superose 6)
T2 sequence (P22082 whole entry, the tested form may be a part): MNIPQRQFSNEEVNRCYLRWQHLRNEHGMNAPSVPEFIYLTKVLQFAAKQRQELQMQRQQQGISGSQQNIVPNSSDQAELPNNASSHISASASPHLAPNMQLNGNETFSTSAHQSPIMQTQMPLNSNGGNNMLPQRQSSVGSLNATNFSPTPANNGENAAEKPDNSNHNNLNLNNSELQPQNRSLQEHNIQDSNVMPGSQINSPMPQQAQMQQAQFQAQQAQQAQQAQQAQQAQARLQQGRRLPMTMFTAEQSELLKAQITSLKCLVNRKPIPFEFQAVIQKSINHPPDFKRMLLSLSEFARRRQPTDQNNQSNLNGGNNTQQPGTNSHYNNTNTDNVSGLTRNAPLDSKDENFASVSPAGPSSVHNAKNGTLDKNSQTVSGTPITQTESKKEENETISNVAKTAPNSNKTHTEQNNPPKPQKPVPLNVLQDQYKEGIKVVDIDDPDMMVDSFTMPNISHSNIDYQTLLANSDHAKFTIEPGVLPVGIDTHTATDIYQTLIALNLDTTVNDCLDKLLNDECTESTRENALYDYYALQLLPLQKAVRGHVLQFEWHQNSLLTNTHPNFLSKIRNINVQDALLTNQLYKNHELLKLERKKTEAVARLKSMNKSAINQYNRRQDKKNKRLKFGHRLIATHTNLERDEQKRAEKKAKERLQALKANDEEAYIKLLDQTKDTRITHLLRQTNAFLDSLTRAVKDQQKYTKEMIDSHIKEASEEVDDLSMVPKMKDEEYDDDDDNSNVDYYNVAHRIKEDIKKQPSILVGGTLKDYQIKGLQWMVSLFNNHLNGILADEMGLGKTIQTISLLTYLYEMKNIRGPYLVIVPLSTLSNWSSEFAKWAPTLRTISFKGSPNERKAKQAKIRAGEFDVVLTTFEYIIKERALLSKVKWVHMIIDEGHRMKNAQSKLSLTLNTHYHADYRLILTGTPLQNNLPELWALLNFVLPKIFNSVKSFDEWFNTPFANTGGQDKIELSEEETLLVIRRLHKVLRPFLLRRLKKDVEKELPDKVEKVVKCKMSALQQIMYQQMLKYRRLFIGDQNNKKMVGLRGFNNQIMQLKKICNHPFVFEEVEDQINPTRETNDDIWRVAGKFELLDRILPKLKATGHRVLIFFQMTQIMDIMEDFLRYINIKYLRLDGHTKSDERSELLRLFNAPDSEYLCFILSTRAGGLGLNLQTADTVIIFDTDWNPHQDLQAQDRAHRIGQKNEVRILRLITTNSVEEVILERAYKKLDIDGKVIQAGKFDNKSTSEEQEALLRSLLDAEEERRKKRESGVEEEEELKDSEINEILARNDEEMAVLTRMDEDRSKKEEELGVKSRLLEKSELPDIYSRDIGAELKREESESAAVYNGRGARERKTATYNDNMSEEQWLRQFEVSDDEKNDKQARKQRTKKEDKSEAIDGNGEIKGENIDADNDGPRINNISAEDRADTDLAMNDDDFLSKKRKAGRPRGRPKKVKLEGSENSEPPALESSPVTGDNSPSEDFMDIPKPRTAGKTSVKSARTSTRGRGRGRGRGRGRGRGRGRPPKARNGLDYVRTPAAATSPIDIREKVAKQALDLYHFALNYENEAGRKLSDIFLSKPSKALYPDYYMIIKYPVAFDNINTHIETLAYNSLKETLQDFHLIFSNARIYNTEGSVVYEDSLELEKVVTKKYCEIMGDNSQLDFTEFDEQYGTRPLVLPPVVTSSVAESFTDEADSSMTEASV

[3] = biological target: T1, Swi3

binding result [1]	binding result [2]	binding result [3]	Binder
binds	binds		B1
binds	binds	binds	B2
	binds		B3
binds	binds		B4

From paper PMC7340788, “Structure of the yeast Swi/Snf complex in a nucleosome free state” (Nature Communications, 2020)
